Test results reported in article doi:10.1101/2025.02.03.636245.

Target: OdinSepF (Candidatus Odinarchaeota)
Test: SEC-MALS

## OdinSepF (natural protein)
  stoichiometry N: 2
